Measurements taken from the supplement of paper PMC10065799, “High-throughput profiling of sequence recognition by tyrosine kinases and SH2 domains using bacterial peptide display” (eLife, 2023).

These sequences were tested against MERTK (UniProt Q12866) (assay: phosphorylation enrichment, bacterial display (enrichment ratio); higher = better substrate or ligand; peptides without Tyr show the background).
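Also: 11-residue human phosphosite peptides and single-mutation variants displayed on the E. coli surface, counted by deep sequencing, each peptide's frequency after selection divided by its frequency in the unselected input library; frequency after pTyr selection over input frequency; kinase dosed for 20-30% of maximal phosphorylation in three min.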

MERTK, sequence (Q12866 whole entry, looked up): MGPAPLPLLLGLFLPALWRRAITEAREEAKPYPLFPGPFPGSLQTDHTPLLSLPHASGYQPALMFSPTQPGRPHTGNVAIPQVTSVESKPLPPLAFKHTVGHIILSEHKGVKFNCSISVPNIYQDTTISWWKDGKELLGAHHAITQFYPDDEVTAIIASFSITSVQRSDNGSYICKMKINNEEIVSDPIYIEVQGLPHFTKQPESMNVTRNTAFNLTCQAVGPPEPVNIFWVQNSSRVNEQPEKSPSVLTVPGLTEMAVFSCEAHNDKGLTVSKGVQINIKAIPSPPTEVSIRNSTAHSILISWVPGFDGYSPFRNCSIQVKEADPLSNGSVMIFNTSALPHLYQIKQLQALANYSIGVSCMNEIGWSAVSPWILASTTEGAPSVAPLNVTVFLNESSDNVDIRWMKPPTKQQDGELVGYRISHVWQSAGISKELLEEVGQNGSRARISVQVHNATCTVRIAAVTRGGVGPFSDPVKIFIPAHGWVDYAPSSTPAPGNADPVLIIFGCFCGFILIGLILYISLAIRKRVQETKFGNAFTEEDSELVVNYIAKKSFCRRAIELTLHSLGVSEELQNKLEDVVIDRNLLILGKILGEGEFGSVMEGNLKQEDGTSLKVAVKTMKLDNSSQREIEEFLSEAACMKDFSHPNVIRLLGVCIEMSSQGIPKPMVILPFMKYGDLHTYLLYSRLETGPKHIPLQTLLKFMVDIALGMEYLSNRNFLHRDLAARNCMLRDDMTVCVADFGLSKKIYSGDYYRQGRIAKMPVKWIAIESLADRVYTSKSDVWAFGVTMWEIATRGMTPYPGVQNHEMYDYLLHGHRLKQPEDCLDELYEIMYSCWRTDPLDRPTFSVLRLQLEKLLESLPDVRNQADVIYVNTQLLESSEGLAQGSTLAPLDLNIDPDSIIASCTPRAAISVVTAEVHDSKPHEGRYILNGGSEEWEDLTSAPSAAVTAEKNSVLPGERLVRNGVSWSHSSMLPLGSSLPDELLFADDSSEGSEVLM

Sequence	phosphorylation enrichment
DENWFYMRAAS [RPS19_Y54_T55M]	0.379
LSFSEYASVQV [SIRPA_Y496_P491L]	0.671
ANFAKYGNPNE [BCHE_Y505]	0.361
VECRVYAEDPY [PCCA_Y401]	0.56
LQFKNYQQLFD [MAN2A1_Y442]	0.358
FDCGMYSHLQG [LGR4_Y848_YF]	4.74
EHLNRYISDTF [TTLL10_Y446]	0.393
GVSFIYTIDGS [DCX_Y105_R102S_YF]	0.552
SHLLRYLSWTV [CLCNKB_Y93]	0.37
YSQNICIQNRN [PKP2_Y631_Y631C]	0.49
VGSIKYLKREW [KCNMA1_Y885_E884K]	0.311
ITKNPYDPPGR	0.424
YNNYGYGSDGF [HNRNPH3_Y161_N163S]	0.652
GHGEEYPAAGA [NOTCH3_Y2221]	0.379
KAESWYQTKFE [KRT75_Y342_E337K_YF]	0.6
SFPSTYRYERG [INPPL1_Y661_P659S]	0.455
SLQFEYVHYGG [CDC14A_Y591_S589F]	0.348

Sequence	phosphorylation enrichment
FEPWVYSFSFE [PRKDC_Y647_YF]	1.66
TRSFDYMEGGD [FGF7_Y58_YF]	0.613
RRIHSYRRHLW [VHL_Y112_G114R]	0.707
VVQGIYGFHHF [UFSP2_Y285_YF]	9.74
RLLRGHDQSAY [HLA-C_Y137_Y137H]	0.371
IEDPFYGNDSD [ACP1_Y133_YF]	0.487
KKILCYIQGGS [HYDIN_Y4610_N4606K]	0.549
KLMTEYKRRKQ [ARFGEF3_Y2029_K2031R]	0.536
NKHTNYTMEHI [ACTN1_Y708]	0.358
IGKDLYANNVL [ACTA2_Y296_R292G]	0.556
YMLYQYLKQIE [RPAP3_Y569_D564Y]	8.62
NYDLDYDSVQP [MYC_Y16]	0.493
PIFLFYLMDLS [ITGB2_Y131_D128Y_YF]	0.914
PRDSGYSFETI [MAP1B_Y1921_S1917R_YF]	0.755
GDFLSYREFHS [ERBIN_Y1107_YF]	0.359
LERYIYNREEY [HLA-DPB1_Y59_F64Y]	0.719

Each sequence was assayed on c-Abl (mouse) in the same assay as above.

Sequence	phosphorylation enrichment
DENWFYMRAAS [RPS19_Y54_T55M]	0.869
LSFSEYASVQV [SIRPA_Y496_P491L]	4.03
ANFAKYGNPNE [BCHE_Y505]	0.357
VECRVYAEDPY [PCCA_Y401]	1.28
LQFKNYQQLFD [MAN2A1_Y442]	0.636
FDCGMYSHLQG [LGR4_Y848_YF]	1.07
EHLNRYISDTF [TTLL10_Y446]	0.655
GVSFIYTIDGS [DCX_Y105_R102S_YF]	0.927
SHLLRYLSWTV [CLCNKB_Y93]	0.781
YSQNICIQNRN [PKP2_Y631_Y631C]	0.663
VGSIKYLKREW [KCNMA1_Y885_E884K]	0.482
ITKNPYDPPGR	0.556
YNNYGYGSDGF [HNRNPH3_Y161_N163S]	0.55
GHGEEYPAAGA [NOTCH3_Y2221]	0.469
KAESWYQTKFE [KRT75_Y342_E337K_YF]	0.839
SFPSTYRYERG [INPPL1_Y661_P659S]	0.52
SLQFEYVHYGG [CDC14A_Y591_S589F]	0.405

Sequence	phosphorylation enrichment
FEPWVYSFSFE [PRKDC_Y647_YF]	0.842
TRSFDYMEGGD [FGF7_Y58_YF]	0.761
RRIHSYRRHLW [VHL_Y112_G114R]	0.699
VVQGIYGFHHF [UFSP2_Y285_YF]	5.3
RLLRGHDQSAY [HLA-C_Y137_Y137H]	0.597
IEDPFYGNDSD [ACP1_Y133_YF]	1.1
KKILCYIQGGS [HYDIN_Y4610_N4606K]	1.07
KLMTEYKRRKQ [ARFGEF3_Y2029_K2031R]	0.503
NKHTNYTMEHI [ACTN1_Y708]	0.352
IGKDLYANNVL [ACTA2_Y296_R292G]	0.77
YMLYQYLKQIE [RPAP3_Y569_D564Y]	1.6
NYDLDYDSVQP [MYC_Y16]	1.02
PIFLFYLMDLS [ITGB2_Y131_D128Y_YF]	1.91
PRDSGYSFETI [MAP1B_Y1921_S1917R_YF]	1.63
GDFLSYREFHS [ERBIN_Y1107_YF]	0.534
LERYIYNREEY [HLA-DPB1_Y59_F64Y]	0.752
